T1: PKC-ζ (purified isoform) (Homo sapiens (Human), UniProt Q05513 1-592)
T1 construct: also called PKC-zeta; PKCzeta
T1 sequence: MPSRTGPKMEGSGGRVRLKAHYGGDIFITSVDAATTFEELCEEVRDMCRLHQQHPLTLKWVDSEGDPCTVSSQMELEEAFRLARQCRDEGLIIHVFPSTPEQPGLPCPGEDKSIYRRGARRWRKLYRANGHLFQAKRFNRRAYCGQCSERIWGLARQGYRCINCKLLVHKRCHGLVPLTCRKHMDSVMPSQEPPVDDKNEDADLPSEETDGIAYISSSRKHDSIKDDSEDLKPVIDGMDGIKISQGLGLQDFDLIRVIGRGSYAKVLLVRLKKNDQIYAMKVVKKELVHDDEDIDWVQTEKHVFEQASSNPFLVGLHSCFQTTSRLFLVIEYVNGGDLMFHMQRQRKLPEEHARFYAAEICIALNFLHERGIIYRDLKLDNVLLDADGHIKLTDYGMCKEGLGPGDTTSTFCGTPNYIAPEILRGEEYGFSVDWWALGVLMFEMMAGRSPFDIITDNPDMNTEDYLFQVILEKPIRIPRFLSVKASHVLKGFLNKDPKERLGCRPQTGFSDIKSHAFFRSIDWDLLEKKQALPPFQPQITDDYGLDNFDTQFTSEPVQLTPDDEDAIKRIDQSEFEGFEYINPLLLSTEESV

B1: PRE 6 (peptide)
peptide: Ac-KDANQLIGISI-NH2
notes: Synthetic peptide; also called peptide PRE 6
B2: PRE 7 (peptide)
peptide: Ac-ISIGILQNADK-NH2
notes: Synthetic peptide (retro form of PRE 4); also called peptide PRE 7
B3: PRE 12 (peptide)
peptide: Ac-KDAQNLI-NH2
notes: Synthetic peptide; also called peptide PRE 12; Ac-KDAQNLI-NH2
B4: PRE 13 (peptide)
peptide: Ac-RDAQNLI-NH2
notes: Synthetic peptide; also called peptide PRE 13; Ac-RDAQNLI-NH2
B5: PRE 3 (peptide)
peptide: Ac-AKGIQEVKGGDAQNLIGISI-NH2
notes: Synthetic peptide; also called peptide PRE 3
B6: PRE 4 (peptide)
peptide: Ac-KDAQNLIGISI-NH2
notes: Synthetic peptide; also called peptide PRE 4
B7: PRE 11 (peptide)
peptide: Ac-RDAQNLIGISI-NH2
notes: Synthetic peptide; also called peptide PRE 11

Key:
PKC-δ (purified isoform) [1] = biological target: T2, PKC-δ (purified isoform) (Homo sapiens (Human), UniProt Q05655 1-676); experiment: competitive ELISA on purified PKC-δ vs anti-PKC-δ Ab; PRE 50 µM
T2 construct: also called PKC-delta; PKCdelta
T2 sequence (Q05655 whole entry, stated change not applied, canonical isoform): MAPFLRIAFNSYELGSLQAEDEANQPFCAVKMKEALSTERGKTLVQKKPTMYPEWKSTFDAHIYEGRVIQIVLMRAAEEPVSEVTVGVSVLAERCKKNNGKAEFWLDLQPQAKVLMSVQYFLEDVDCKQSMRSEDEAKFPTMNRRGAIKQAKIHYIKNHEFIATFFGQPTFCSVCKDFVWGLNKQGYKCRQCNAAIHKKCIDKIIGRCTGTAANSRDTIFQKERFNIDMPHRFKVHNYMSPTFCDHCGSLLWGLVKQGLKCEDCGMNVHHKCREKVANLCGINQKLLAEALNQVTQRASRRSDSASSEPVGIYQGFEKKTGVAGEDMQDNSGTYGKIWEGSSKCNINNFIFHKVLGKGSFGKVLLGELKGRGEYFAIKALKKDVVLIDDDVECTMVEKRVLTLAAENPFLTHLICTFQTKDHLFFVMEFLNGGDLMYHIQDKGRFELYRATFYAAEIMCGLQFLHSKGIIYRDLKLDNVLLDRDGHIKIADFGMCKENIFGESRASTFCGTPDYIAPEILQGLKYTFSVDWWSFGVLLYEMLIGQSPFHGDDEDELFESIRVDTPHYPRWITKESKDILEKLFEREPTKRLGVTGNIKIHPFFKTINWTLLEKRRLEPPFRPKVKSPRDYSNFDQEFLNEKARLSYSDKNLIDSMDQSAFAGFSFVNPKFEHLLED
Method: (§1) Greiner 96 well ELISA plates were coated with the appropriate PKC isoform diluted in PBSN (PBS with Calcium/Magnesium+0.05% Sodium azide w/w). 50 μL/well at 250 ng/mL was used. Control wells contained PBSN only. Plates were incubated overnight at 4° C.
(§2) The plates were washed 3 times with 200 μL of dH₂O per well, then 100 μL of blocking solution was added per well and the plate incubated for 1 h at 37° C. The washing steps with dH₂O were repeated and 50 μL of the appropriate PRE solution (PRE stock solution [20 mM in DMSO] diluted in PBSN) was added and the plate incubated for 1 h at room temperature.
(§3) 50 μL of 1:1000 dilution of Alkaline Phosphatase (AP) conjugated antibody (anti-rabbit for all except zeta, which was anti-goat) was then added and the plate incubated for 1 h at room temperature. Washing with dH₂O was then repeated. Finally, 100 μL of pNPP solution in pNPP buffer (2 mM MgCl₂, 100 mM Sodium bicarbonate in water, pH 9.8) was added to all wells and incubated for 8 minutes for α, βI, βII ε, and ζ, or for 15-20 mins for […] (until sufficient coloration is observed). The reaction was stopped by addition of Stop solution (2N NaOH) and the absorbance at 405 nm was read on a Galaxy Plate reader.

PKC-ζ (purified isoform) [2] = biological target: T1, PKC-ζ (purified isoform); experiment: competitive ELISA on purified PKC-ζ vs anti-PKC-ζ Ab; PRE 50 µM
Method: as §1, §2, §3

PKC-δ (purified isoform) [3] = biological target: T2, PKC-δ (purified isoform); experiment: competitive ELISA on purified PKC-δ vs anti-PKC-δ Ab; PRE 100 µM
Method: as §1, §2, §3

PKC-δ (purified isoform) [4] = biological target: T2, PKC-δ (purified isoform); experiment: competitive ELISA on purified PKC-δ vs anti-PKC-δ Ab; PRE 200 µM
Method: as §1, §2, §3

PKC-ζ (purified isoform) [5] = biological target: T1, PKC-ζ (purified isoform); experiment: competitive ELISA on purified PKC-ζ vs anti-PKC-ζ Ab; PRE 100 µM
Method: as §1, §2, §3

PKC-ζ (purified isoform) [6] = biological target: T1, PKC-ζ (purified isoform); experiment: competitive ELISA on purified PKC-ζ vs anti-PKC-ζ Ab; PRE 200 µM
Method: as §1, §2, §3

[7] = biological target: T3, PKC-βI (purified isoform) (Homo sapiens (Human), UniProt P05771 2-671); experiment: competitive ELISA on purified PKC-βI vs anti-PKC-βI Ab; PRE 50 µM
T3 construct: also called PKC-beta I
T3 sequence (P05771 2-671 limits assumed): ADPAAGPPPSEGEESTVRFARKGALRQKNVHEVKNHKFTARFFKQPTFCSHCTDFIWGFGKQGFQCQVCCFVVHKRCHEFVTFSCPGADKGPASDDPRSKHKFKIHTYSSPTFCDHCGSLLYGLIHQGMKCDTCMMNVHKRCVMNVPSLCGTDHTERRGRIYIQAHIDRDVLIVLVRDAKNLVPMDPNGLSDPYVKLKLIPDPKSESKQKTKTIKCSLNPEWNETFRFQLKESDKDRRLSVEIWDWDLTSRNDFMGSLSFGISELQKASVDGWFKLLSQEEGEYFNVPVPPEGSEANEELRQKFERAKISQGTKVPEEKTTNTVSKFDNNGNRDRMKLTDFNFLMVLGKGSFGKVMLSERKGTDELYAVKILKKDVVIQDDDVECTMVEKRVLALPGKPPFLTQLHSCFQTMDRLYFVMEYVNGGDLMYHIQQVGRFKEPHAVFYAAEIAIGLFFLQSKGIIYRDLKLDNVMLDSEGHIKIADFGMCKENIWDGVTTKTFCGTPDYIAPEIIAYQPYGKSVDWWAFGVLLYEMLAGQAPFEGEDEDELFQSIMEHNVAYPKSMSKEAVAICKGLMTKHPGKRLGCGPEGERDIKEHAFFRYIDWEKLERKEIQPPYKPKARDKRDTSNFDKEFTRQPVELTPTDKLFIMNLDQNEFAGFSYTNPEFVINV
Method: as §1, §2, §3

[8] = biological target: T3, PKC-βI (purified isoform); experiment: competitive ELISA on purified PKC-βI vs anti-PKC-βI Ab; PRE 100 µM
Method: as §1, §2, §3

[9] = biological target: T3, PKC-βI (purified isoform); experiment: competitive ELISA on purified PKC-βI vs anti-PKC-βI Ab; PRE 200 µM
Method: as §1, §2, §3

[10] = biological target: T4, PKC-α (endogenous, human cell lysates and cells) (human, UniProt P17252 2-672); experiment: anti-PKC-α immunofluorescence, V5E-transfected IMR-32 cells loaded with PRE (label on PKC-α and V5E); control with endocytosis reagent 113
T4 construct: Endogenous protein of human cell lysates, on Western blot membranes (denatured) or in fixed cells; also called PKC-alpha; PKC-A
Source text: Neuroblastoma cells from the IMR-32 cell line were stably transfected with a vector containing the V5E sequence of PKC-α as outlined above in Example 13. The V5E sequence is part of the antigenic amino acid sequence that is used to raise the commercially available anti-PKC-α isoform-specific antibody.
The peptides PRE 1, 2, 3, 4, 5, 6, 7, 8, 9, 10, 11, 12 and 13 (see Table 3) were incorporated into the transfected IMR-32 cells via pinocytic endocytosis (Molecular Probes) according to the supplier's recommendations. Following fixation and permeabilization, PKC-α was detected using an Alexa fluor secondary antibody (as described above in Example 8).

| binding capacity (%) (PKC-δ (purified isoform) [1]) | binding capacity (%) (PKC-ζ (purified isoform) [2]) | binding capacity (%) (PKC-δ (purified isoform) [3]) | binding capacity (%) (PKC-δ (purified isoform) [4]) | binding capacity (%) (PKC-ζ (purified isoform) [5]) | binding capacity (%) (PKC-ζ (purified isoform) [6]) | binding capacity (%) [7] | binding capacity (%) [8] | binding capacity (%) [9] | Relative Fluorescence Intensity [10] | Binder |
| --- | --- | --- | --- | --- | --- | --- | --- | --- | --- | --- |
| 17.5% | 0% | 13.2% | 14% | 0% | 0% | 0% | 7.93% | 6.14% | 73 | B1 |
| 3.06% | 1.83% | 0% | 0% | 0% | 1.54% | 2.1% | 0% | 0% | 75 | B2 |
| 2.26% |  | 1.02% | 23.5% |  |  | 0.79% | 0% | 0% | 124 | B3 |
| 0% | 0% | 0.79% | 17.9% | 0% | 4.29% | 0% | 0% | 0% |  | B4 |
| 48.3% | 14% | 56% | 57% | 23.9% | 29.1% | 26% | 22.5% | 23% | 83 | B5 |
| 29.2% | 0% | 30.7% | 17.3% | 0% | 5.85% | 6.02% | 15.7% | 7.46% | 79 | B6 |
| 34.1% | 0% | 21.5% | 18.7% | 0% | 0% |  |  |  | 131 | B7 |

Reference: US20100041597A1 (published 2010)
